We go through 1 molecule from patent CN115521378A (NANJING JISHENG AOMA BIOLOGICAL PHARMACEUTICAL CO LTD, dated 2022).

The target of this assay is T1, PD-L1蛋白 (human, UniProt Q9NZQ7 19-238, limits assumed).
T1 construct: also called 人PD-L1蛋白; CD274
As to the kind of experiment: competition ELISA: PD-L1 coated, biotinylated PD-1 at 1 ug/mL as competitor, HRP-streptavidin read-out. In general terms: An ELISA detects its analyte on a solid surface through an enzyme-linked reagent.

T1 sequence (Q9NZQ7 19-238 limits assumed): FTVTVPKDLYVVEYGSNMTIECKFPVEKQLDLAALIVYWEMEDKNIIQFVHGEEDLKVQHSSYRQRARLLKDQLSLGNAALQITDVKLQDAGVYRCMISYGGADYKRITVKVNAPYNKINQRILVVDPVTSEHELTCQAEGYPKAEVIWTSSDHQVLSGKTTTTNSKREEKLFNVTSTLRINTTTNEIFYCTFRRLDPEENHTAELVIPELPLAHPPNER

B1: 13H6D3 (antibody, V domains shown)
VH: QVQLQQPGADLVKPGASVKLSCKASGYTFTSNWMHWMKQRPGQGLDWIGMIHPNSAIKYNEKFKSRASLTADKSSSTAYMQLSSLTSEDSAVYYCARSYYGSSPYFFDYWGQGTTLTVSS
VL: DIQMTQTTSSLSASLGDRVTISCRASQDISKYLNWYQQKPDGTVKFLIYYTSRLHSGVPARFSGSGSGTDYFLTISNLEQEDVATYFCQQGDTLPWTFGGGTKLEIK
notes: Only variable domains are tied to the name; also called 克隆 13H6D3
For the molecule B1, the IC50 amounted to 1.23 nM.

One may read the IC50 as the concentration at which inhibition is half-maximal.
